In doi:10.1101/2024.10.30.620795 (2024):

T1: A*01/LTD peptide on A*01/LTD (human)
T1 peptide: LTDEMIAQY

B1: 201 (TCR)
alpha TRAV19 TRAJ4 CDR3: CALSLSGGYNKLIF
beta TRBV6-6 TRBJ2-7 CDR3: CASSQGVIDEQYF
B2: 718 (TCR)
alpha TRAV3 TRAJ45 CDR3: CAVRQTGGGADGLTF
beta TRBV29-1 TRBJ2-2 CDR3: CSVPGLVYPGELFF
B3: 841.2 (TCR)
alpha TRAV25 TRAJ38 CDR3: CAGPINAGNNRKLIW
beta TRBV6-5 TRBJ2-7 CDR3: CASSLDRVRGNSYEQYF
B4: 11195 (TCR)
alpha TRAV19 TRAJ32 CDR3: CALRYGGATNKLIF
beta TRBV7-6 TRBJ1-2 CDR3: CASSLEGPYGYTF
B5: 6319 (TCR)
alpha TRAV21 TRAJ22 CDR3: CAVKTSGSARQLTF
beta TRBV27 TRBJ2-3 CDR3: CASSSPPISVATDTQYF
B6: 11155 (TCR)
alpha TRAV16 TRAJ37 CDR3: CALNSNTGKLIF
beta TRBV27 TRBJ2-1 CDR3: CASSSFLLAGGGGNSNEQFF
B7: 11949 (TCR)
alpha TRAV35 TRAJ36 CDR3: CAGQLETGANNLFF
beta TRBV10-3 TRBJ2-3 CDR3: CAINPGTSGRWGTDTQYF
B8: 7100 (TCR)
alpha TRAV21 TRAJ43 CDR3: CAVRGGDMRF
beta TRBV6-6 TRBJ2-7 CDR3: CASTNRGDISYEQYF
B9: 832 (TCR)
alpha TRAV13-1 TRAJ6 CDR3: CAAGSSGGSYIPTF
beta TRBV7-7 TRBJ2-1 CDR3: CASSLEGHRGLYNEQFF
B10: 225 (TCR)
alpha TRAV12-2 TRAJ41 CDR3: CAVGNSGYALNF
beta TRBV11-2 TRBJ2-1 CDR3: CASLEGPGNEQFF
B11: 11085.2 (TCR)
alpha TRAV2 TRAJ6 CDR3: CAVEDPAGGSYIPTF
beta TRBV20-1 TRBJ2-7 CDR3: CSARGATGDFYEQYF
B12: 297 (TCR)
alpha TRAV12-2 TRAJ33 CDR3: CAVSQGGVSNYQLIW
beta TRBV29-1 TRBJ2-7 CDR3: CSVFTGWPYEQYF
B13: 11751 (TCR)
alpha TRAV21 TRAJ49 CDR3: CAVRPPGNQFYF
beta TRBV6-4 TRBJ2-1 CDR3: CASSPVGTQGYNEQFF
B14: 7287 (TCR)
alpha TRAV16 TRAJ17 CDR3: CALRSPAAGNKLTF
beta TRBV27 TRBJ2-5 CDR3: CASSFAEGTQYF
B15: 7734 (TCR)
alpha TRAV21 TRAJ29 CDR3: CAVRAGNTPLVF
beta TRBV6-2 TRBJ1-1 CDR3: CASSYTTGTVIPNTEAFF
B16: 7156 (TCR)
alpha TRAV29/DV5 TRAJ49 CDR3: CAASGGNQFYF
beta TRBV5-5 TRBJ2-2 CDR3: CASSAPGGVDTGELFF
B17: 11151 (TCR)
alpha TRAV12-2 TRAJ53 CDR3: CAVNSGGSGGSNYKLTF
beta TRBV29-1 TRBJ2-7 CDR3: CSAQQGWPYEQYF
B18: 8915 (TCR)
alpha TRAV29/DV5 TRAJ49 CDR3: CAAWSRGTGNQFYF
beta TRBV20-1 TRBJ2-1 CDR3: CSARDRWEGRTNEQFF
B19: 6844 (TCR)
alpha TRAV12-3 TRAJ33 CDR3: CAGRSNYQLIW
beta TRBV30 TRBJ2-7 CDR3: CAWSPSGSPLEQYF
B20: 10832 (TCR)
alpha TRAV12-2 TRAJ53 CDR3: CAVNPRGGGSNYKLTF
beta TRBV29-1 TRBJ2-7 CDR3: CSAQTAWPYEQYF
B21: 6254 (TCR)
alpha TRAV21 TRAJ10 CDR3: CAVGGGGGNKLTF
beta TRBV11-2 TRBJ1-2 CDR3: CASSLLWVGDYGYTF
B22: 7094 (TCR)
alpha TRAV12-3 TRAJ33 CDR3: CAMRSNYQLIW
beta TRBV30 TRBJ2-7 CDR3: CAWRLQGAGEQYF
B23: 4160 (TCR)
alpha TRAV35 TRAJ21 CDR3: CAGLYNFNKFYF
beta TRBV19 TRBJ1-1 CDR3: CASSTLRGDNRGTEAFF
B24: 6808 (TCR)
alpha TRAV17 TRAJ45 CDR3: CATKRGADGLTF
beta TRBV6-5 TRBJ1-2 CDR3: CASSYGGDVYGYTF
B25: 6265 (TCR)
alpha TRAV30 TRAJ49 CDR3: CGTAPLTGNQFYF
beta TRBV18 TRBJ1-1 CDR3: CASSHSGTAYTEAFF
B26: 5469 (TCR)
alpha TRAV12-2 TRAJ53 CDR3: CAVNWGGGSNYKLTF
beta TRBV29-1 TRBJ2-7 CDR3: CSVGQGWPYEQYF
B27: 5251 (TCR)
alpha TRAV12-2 TRAJ53 CDR3: CAVNGGGGSNYKLTF
beta TRBV29-1 TRBJ2-7 CDR3: CSVGTGWPYEQYF
B28: 5458 (TCR)
alpha TRAV29/DV5 TRAJ47 CDR3: CAATGGNKLVF
beta TRBV5-5 TRBJ2-7 CDR3: CASSHPLGVSSYEQYF
B29: 5170 (TCR)
alpha TRAV12-3 TRAJ33 CDR3: CAMRSNYQLIW
beta TRBV6-1 TRBJ1-5 CDR3: CASSEAQGPQHF
B30: 8483 (TCR)
alpha TRAV21 TRAJ20 CDR3: CAVYFRSNDYKLSF
beta TRBV20-1 TRBJ2-7 CDR3: CSATGTVNYEQYF
B31: 3936 (TCR)
alpha TRAV12-3 TRAJ33 CDR3: CAMRSNYQLIW
beta TRBV27 TRBJ2-3 CDR3: CASSPSQGTQYF
B32: 11870 (TCR)
alpha TRAV12-1 TRAJ9 CDR3: CVVNRGTGGFKTIF
beta TRBV27 TRBJ1-6 CDR3: CASMLASYNSPLHF
B33: 8395 (TCR)
alpha TRAV21 TRAJ45 CDR3: CAGGGGADGLTF
beta TRBV6-6 TRBJ2-3 CDR3: CASSYPSPDTQYF
B34: 386 (TCR)
alpha TRAV21 TRAJ52 CDR3: CAVRPGRGTSYGKLTF
beta TRBV19 TRBJ2-3 CDR3: CASSMGAGGAADTQYF
B35: 66 (TCR)
alpha TRAV21 TRAJ41 CDR3: CAVQSSGSGYALNF
beta TRBV5-5 TRBJ2-7 CDR3: CASTKGTDSYEQYF
B36: 11253 (TCR)
alpha TRAV21 TRAJ40 CDR3: CAVRGGFGSGTYKYIF
beta TRBV28 TRBJ1-2 CDR3: CASRTTRANYGYTF
B37: 509 (TCR)
alpha TRAV12-1 TRAJ36 CDR3: CVVTDLFF
beta TRBV27 TRBJ2-2 CDR3: CASSPRTGVAGELFF
B38: 6743 (TCR)
alpha TRAV5 TRAJ15 CDR3: CAGSRTGTALIF
beta TRBV27 TRBJ2-6 CDR3: CASSTGIVTGANVLTF
B39: 5245 (TCR)
alpha TRAV30 TRAJ34 CDR3: CGTEIRGKLIF
beta TRBV27 TRBJ1-5 CDR3: CASSLGFPNQPQHF
B40: 5576.2 (TCR)
alpha TRAV12-3 TRAJ49 CDR3: CAMKRDQFYF
beta TRBV6-2 TRBJ2-7 CDR3: CASRTIDLLAGEYEQYF
B41: 763 (TCR)
alpha TRAV19 TRAJ32 CDR3: CALRYGGATNKLIF
beta TRBV7-6 TRBJ1-2 CDR3: CASSLEGVGGYTF
B42: 684 (TCR)
alpha TRAV38-1 TRAJ31 CDR3: CAFMKLGNNARLMF
beta TRBV10-3 TRBJ1-5 CDR3: CAISGPEINQPQHF
B43: 1735 (TCR)
alpha TRAV21 TRAJ11 CDR3: CAVTRGGYSTLTF
beta TRBV12-3 TRBJ2-1 CDR3: CASSLGTGGIDEQFF
B44: 6548 (TCR)
alpha TRAV12-3 TRAJ33 CDR3: CASRSNYQLIW
beta TRBV6-1 TRBJ1-5 CDR3: CASSDAQAPQHF
B45: 10813 (TCR)
alpha TRAV3 TRAJ45 CDR3: CAVRDSGGGADGLTF
beta TRBV29-1 TRBJ2-2 CDR3: CSVPGLVFPGELFF
B46: 545 (TCR)
alpha TRAV38-1 TRAJ23 CDR3: CALRGNQGGKLIF
beta TRBV7-9 TRBJ2-7 CDR3: CASSPDGMHEQYF
B47: 2722 (TCR)
alpha TRAV21 TRAJ45 CDR3: CAVRGADGLTF
beta TRBV6-6 TRBJ2-7 CDR3: CASTNRASDSYEQYF
B48: 3155 (TCR)
alpha TRAV12-3 TRAJ33 CDR3: CAMRSNYQLIW
beta TRBV6-5 TRBJ2-1 CDR3: CASSYAQGAQFF
B49: 4386 (TCR)
alpha TRAV14/DV4 TRAJ10 CDR3: CAKAGGGNKLTF
beta TRBV7-6 TRBJ2-1 CDR3: CASSLTTGQGPHNEQFF
B50: 317 (TCR)
alpha TRAV12-3 TRAJ33 CDR3: CAMRSNYQLIW
beta TRBV6-5 TRBJ2-7 CDR3: CASSYAQGEQYF
B51: 7894 (TCR)
alpha TRAV5 TRAJ39 CDR3: CAQNAGNMLTF
beta TRBV27 TRBJ1-1 CDR3: CASSLAPNTEAFF
B52: 2123 (TCR)
alpha TRAV14/DV4 TRAJ43 CDR3: CAMRDLGDMRF
beta TRBV27 TRBJ1-2 CDR3: CASSFWDRRYGYTF
B53: 4350 (TCR)
alpha TRAV29/DV5 TRAJ42 CDR3: CAASLNYGGSQGNLIF
beta TRBV19 TRBJ1-1 CDR3: CASSSKDITVTEAFF
B54: 5226 (TCR)
alpha TRAV21 TRAJ49 CDR3: CAVRGNQFYF
beta TRBV6-2 TRBJ2-1 CDR3: CASSYVVVQGVPYNEQFF
B55: 2495 (TCR)
alpha TRAV19 TRAJ23 CDR3: CALRIYNQGGKLIF
beta TRBV5-1 TRBJ2-1 CDR3: CASSTGLAGMSSYNEQFF
B56: 2058 (TCR)
alpha TRAV39 TRAJ49 CDR3: CAEGNQFYF
beta TRBV7-9 TRBJ2-1 CDR3: CASSLALAGRNYNEQFF
B57: 1650 (TCR)
alpha TRAV13-1 TRAJ9 CDR3: CAAPPGGFKTIF
beta TRBV28 TRBJ2-1 CDR3: CASTTSTGAYNEQFF
B58: 41 (TCR)
alpha TRAV12-2 TRAJ53 CDR3: CAVGRGGGSNYKLTF
beta TRBV29-1 TRBJ2-7 CDR3: CSAHGGWPYEQYF
B59: 1361 (TCR)
alpha TRAV12-1 TRAJ4 CDR3: CVVTGFSGGYNKLIF
beta TRBV14 TRBJ1-4 CDR3: CASSLVRGGFEKLFF
B60: 2997 (TCR)
alpha TRAV9-2 TRAJ9 CDR3: CALSALNTGGFKTIF
beta TRBV20-1 TRBJ1-1 CDR3: CSASGLTRDSPLNTEAFF
B61: 475 (TCR)
alpha TRAV3 TRAJ40 CDR3: CAVSGPTSGTYKYIF
beta TRBV5-5 TRBJ1-5 CDR3: CASSLWDGGNQPQHF

Molecular target: T1, A*01/LTD peptide on A*01/LTD
Experiment: activation reporter or marker

| Binder | binding result |
| --- | --- |
| B1 | recognises |
| B2 | recognises |
| B3 | recognises |
| B4 | recognises |
| B5 | recognises |
| B6 | recognises |
| B7 | recognises |
| B8 | recognises |
| B9 | recognises |
| B10 | recognises |
| B11 | recognises |
| B12 | recognises |
| B13 | recognises |
| B14 | recognises |
| B15 | recognises |
| B16 | recognises |
| B17 | recognises |
| B18 | recognises |
| B19 | recognises |
| B20 | recognises |
| B21 | recognises |

| Binder | binding result |
| --- | --- |
| B22 | recognises |
| B23 | recognises |
| B24 | recognises |
| B25 | recognises |
| B26 | recognises |
| B27 | recognises |
| B28 | recognises |
| B29 | recognises |
| B30 | recognises |
| B31 | recognises |
| B32 | recognises |
| B33 | recognises |
| B34 | recognises |
| B35 | recognises |
| B36 | recognises |
| B37 | recognises |
| B38 | recognises |
| B39 | recognises |
| B40 | recognises |
| B41 | recognises |
| B42 | recognises |

| Binder | binding result |
| --- | --- |
| B43 | recognises |
| B44 | recognises |
| B45 | recognises |
| B46 | recognises |
| B47 | recognises |
| B48 | recognises |
| B49 | recognises |
| B50 | recognises |
| B51 | recognises |
| B52 | no recognition |
| B53 | no recognition |
| B54 | recognises |
| B55 | recognises |
| B56 | recognises |
| B57 | recognises |
| B58 | recognises |
| B59 | recognises |
| B60 | recognises |
| B61 | recognises |
